In IntAct's records for PubMed 19412162:

B1: F-box only protein 31 (Homo sapiens), Q5XUX0 (parent)
chain: MAVCARLCGVGPSRGCRRRQQRRGPAETAAADSEPDTDPEEERIEASAGVGGGLCAGPSPPPPRCSLLELPPELLVEIFASLPGTDLPSLAQVCTKFRRILHTDTIWRRRCREEYGVCENLRKLEITGVSCRDVYAKLLHRYRHILGLWQPDIGPYGGLLNVVVDGLFIIGWMYLPPHDPHVDDPMRFKPLFRIHLMERKAATVECMYGHKGPHHGHIQIVKKDEFSTKCNQTDHHRMSGGRQEEFRTWLREEWGRTLEDIFHEHMQELILMKFIYTSQYDNCLTYRRIYLPPSRPDDLIKPGLFKGTYGSHGLEIVMLSFHGRRARGTKITGDPNIPAGQQTVEIDLRHRIQLPDLENQRNFNELSRIVLEVRERVRQEQQEGGHEAGEGRGRQGPRESQPSPAQPRAEAPSKGPDGTPGEDGGEPGDAVAAAEQPAQCGQGQPFVLPVGVSSRNEDYPRTCRMCFYGTGLIAGHGFTSPERTPGVFILFDEDRFGFVWLELKSFSLYSRVQATFRNADAPSPQAFDEMLKNIQSLTS

Variants of: B1
Details: with atm_human ATM

Row | effect of a mutation on the interaction | Variant
1 | disrupting interaction | S278A
2 | disrupting interaction | S400A
